{"source": "patent US20230050846A1", "about": "“TREATMENT OF HEPATIC AND CARDIOVASCULAR DISORDERS” (LIFESEARCH, priority 2019, published 2023)", "target": "T1, human F1Fo-ATPase (Homo sapiens, UniProt P06576)", "T1 construct": "Human F1Fo-ATPase was purified from HepG2 cells by immunocapture; endogenous in cells; host or cells: HepG2 cells; complex isolated by immunocapture with anti-ATP synthase antibody 12F4AD8AF8 (#ab109867, Abcam)", "test": "F1-ATPase activity assay (NADH-coupled, purified enzyme)", "assay_type": "biochemical", "details": "1 μM", "from_the_text": "The mature human IF1 protein (SEQ ID NO: 5) was chemically synthesized by GenScript (Piscataway, N.J., USA) at >80% purity. The peptides derived from the mature human IF1 sequence (IF1-1-60, IF1-10-56, IF1-10-47) were produced by BachemAG (Bubendorf, Switzerland) with >90% purity.\nHuman F1Fo-ATPase was purified from HepG2 cells by immunocapture using mouse monoclonal anti-ATP synthase antibody (12F4AD8AF8, #ab109867, Abcam) according to manufacturer's instructions.\nMeasurement of F1-ATPase activity was assayed as previously described. Briefly, 10 μg of F1Fo-ATPase was prepared into 50 μL of activity assay buffer (10 mM HEPES, 150 mM NaCl, 5 mM KCl, 5 mM MgCl2, 0.5 mM phosphoenolpyruvate, 250 μM NADH, 100 μM ATP, 20 U lactate dehydrogenase, 120 U pyruvate kinase). The mixture was incubated at 37° C. for 30 min. Then the F1-ATPase activity was measured in a 96-well microplate by adding 5 μL of the mixture (1 μg of F1Fo-ATPase per point) per well to 200 μL of activity assay buffer at 37° C., and by adding 5 μL of buffer with or without peptide (1 μM each). The reduction in the absorbance of NADH was measured at 340 nm for 5 min with a Varioskan™ Flash Multimode Reader (Thermo Fisher Scientific). A slope was calculated for each well and the results expressed as a percentage of the control slope."}
{"molecule": "IF1: mature human IF1 protein (SEQ ID NO: 5), chemically synthesized, natural inhibitor of F1-ATPase (protein, listed as Homo sapiens) GSDQSENVDRGAGSIREAGGAFGKREQAEEERYFRAQSREQLAALKKHHEEEIVHHKKEIERLQKEIERHKQKIKMLKHDD", "values": [{"measurement": "inhibition of F1-ATPase activity as compared to control", "result": 96, "unit": "%"}]}
